Read-outs that look alike come from different tables or passages of the source.
What was measured:
LS-180 tumor = conditions: mouse, in vivo
Method: (§2) Time 0 inject (i.v.) 200 μg NR-LU-10-StrAv

LS-180 tumor xenografts [1] = assay: Tumor uptake of PIP-biocytin (two-step pretargeting); assay type: in vivo, tumored nude mice
Method: (§1) At 24 hours, the mice received an i.v. injection of PIP-I-131-biocytin (40 μCi) and an amount of cold carrier PIP-I-127 biocytin corresponding to doses of 42 μg (69,767 pmol), 21 μg (34,884 pmol), 5.7 μg (9468 pmol), 2.85 μg (4734 pmol) or 0.5 μg (830 pmol).

[2] = as above; assay type: in vivo, tumored nude mice; conditions: mouse, tumor, 0.0005 mg; 0.5 μg dose; 120 hour time point (96 hours after administration); read-out: peak tumor uptake
Method: as §1

LS-180 tumor xenografts [3] = assay: Two-step pretargeting of 131I-PIP-biocytin in tumor-bearing mice; assay type: in vivo, female nude mice; conditions: 200 μg NR-LU-10-streptavidin at t=0; 42 μg at t=36 h
Method: At t=0, the mice were injected with 200 μg of NR-LU-10-streptavidin conjugate labeled with ^125 I using PIP-NHS (see Example IV.A.). At t=36 h, the mice received 42 μg of ^131 IPIP-biocytin.

in vivo = conditions: mouse
Method: as §2

[4] = tested on: LS-180 human colon tumor xenografts
Method: The experimental protocol was as follows:
Group 1: Time 0, inject 100 μg ^125 I-labeled,
The three radiolabels employed in this protocol are capable of detection in the presence of each other.
Areas under the curves (AUC) and the ratio of AUCtumor /AUCblood were determined.

[5] = in vivo; cited from earlier work
[6] = molecular target: T1, Streptavidin-agarose beads (Streptomyces avidinii, UniProt P22629); assay: Binding to streptavidin-agarose beads; conditions: for Pellet: radioactivity bound to beads; for Supernatant: radioactivity not bound to beads
T1 construct: purchased Sigma S-1638
T1 sequence (P22629 25-183): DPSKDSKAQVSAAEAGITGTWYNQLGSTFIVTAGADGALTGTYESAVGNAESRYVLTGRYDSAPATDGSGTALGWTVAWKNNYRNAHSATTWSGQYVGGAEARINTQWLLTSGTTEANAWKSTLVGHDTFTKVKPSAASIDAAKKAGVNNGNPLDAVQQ
Method: B. Biotinylation of asialoorosomucoid clearing agent and orosomucoid control. 100 μl of 0.2 M sodium carbonate buffer, pH 9.2, was added to 2 mg (in 1.00 ml PBS) of PIP-125-labeled orosomucoid and to 2 mg PIP-125-labeled asialoorosomucoid. 60 μl of a 1.85 mg/ml solution of NHS-amino caproate biotin in DMSO was then added to each compound. The reaction mixtures were vortexed and allowed to sit at room temperature for 45 minutes. […]. Streptavidin-agarose beads (Sigma S-1638) or -pellets were washed with PBS, and 20 μg of each biotinylated, radiolabeled protein was added to 400 μl of beads and 400 μl of PBS, vortexed for 20 seconds and centrifuged at 14,000 rpm for 5 minutes. The supernatant was removed and the pellets were washed with 400 μl PBS. This wash procedure was repeated twice more, and the combined supernatants were assayed by placing them in a dosimeter versus their respective pellets.

[7] = assay type: in vivo, female BALB/c mice; conditions: 5 minutes post-administration, percent injected dose of I-125-labeled protein
Method: A. Derivitization of orosomucoid. 10 mg human orosomucoid (Sigma N-9885) was dissolved in 3.5 ml of pH 5.5 0.1 M sodium acetate buffer containing 160 mM NaCl. 70 μl of a 2% (w/v) CaCl solution in deionized (D.I.) water was added and 11 μl of neuraminidase (Sigma N-7885), 4.6 U/ml, was added. The mixture was incubated at 37° C. for 2 hours, and the entire sample was exchanged over a Centricon-10® ultrafiltration device (available from Amicon, Danvers, Mass.) with 2 volumes of PBS. The asialoorosomucoid and orosomucoid starting material were radiolabeled with I-125 using PIP technology, as described in Example IV above.
In addition, two animals receiving each compound were sacrificed at 5 minutes post-administration and limited biodistributions were performed.

## O=C(CCCCC1SCC2NC(=O)NC21)NCCCCC(NC(=O)c1ccc([131I])cc1)C(=O)O (stereo not shown) [PIP-biocytin]
LS-180 tumor
  peak tumor uptake: about 700 pMOL/G
  tumor uptake: above 500 pMOL/G
LS-180 tumor xenografts [1]; mouse, in vivo
  absolute AUCtumor: 9220
LS-180 tumor xenografts [1]; three highest doses (42, 21, 5.7 μg), 4 hours after injection
  tumor localization: about 600 pmol/g
[2]
  tissue uptake at 96 h: 85 %ID/g
LS-180 tumor xenografts [3]
  specific tumor localization, molecules per avidin molecule: ≈ 1.5
In vivo
  half-life: ~5 min

## Avidin
[4]; at 25 h (antibody at time 0, avidin at 24 h)
  tumor uptake: about 250 pmol/g
[4]; at 32 h (antibody at time 0, avidin at 24 h)
  tumor uptake: ~150 pmol/g
[4]; at 48 h (antibody at time 0, avidin at 24 h)
  tumor uptake: ~50 pmol/g
[4]; at 120 h (antibody at time 0, avidin at 24 h)
  tumor uptake: ~0 pmol/g

## TNF-alpha
[5]
  serum half-life: 10 to 15 min

## asialoorosomucoid: orosomucoid treated with neuraminidase to remove sialic acid residues
[6]
  Pellet: 8.0%
  Supernatant: 92%
[7]
  blood level: 0.4%

## orosomucoid: human orosomucoid (alpha-1 acid glycoprotein, Sigma N-9885), I-125 labeled [reference compound]
[6]
  Pellet: 10%
  Supernatant: 90%
[7]
  blood level: 78%

B1: TNF-beta: tumor necrosis factor beta form, 171 amino acids (protein, UniProt P01374 35-205, looked up)
Lymphotoxin-alpha: LPGVGLTPSAAQTARQHPKMHLAHSTLKPAAHLIGDPSKQNSLLWRANTDRAFLQDGFSLSNNSLLVPTSGIYFVYSQVVFSGKAYSPKATSSPLYLAHEVQLFSSQYPFHVPLLSSQKMVYPGLQEPWLHSMYHGAAFQLTQGDQLSTHTDGIPHLVLSPSTVFFGAFAL
[5]
  serum half-life: 10 to 15 min

— patent publication US5976535A, “Pretargeting protocols for the enhanced localization of cytotoxins to target sites and cytotoxic combinations useful therefore” (NeoRx Corporation, priority 1995, dated 1999)
